{"source": "patent US10391180B2", "about": "“Self-assembling complex for targeting chemical agents to cells” (CEDARS-SINAI MEDICAL CENTER, priority 2007, dated 2019)", "key": {"[1]": {"assay": "HerDox stability in serum-containing media at 37° C (Ni beads)", "assay_type": "in vitro ADME", "settings": "10% fetal bovine serum media", "procedure": "FIGS. 6 (A)-(B) illustrates conjugate stability under different storage conditions, or in serum. As illustrated in FIG. 6 (A), HerDox was incubated up to 12 days at 4° C., RT, or 37° C. Samples were filtered through ultrafiltration spin columns every other day, and retentate and filtrate absorbances measured at 480 nm to determine relative Dox retention or release from conjugates, respectively. As illustrated in FIG. 6 (B), to mimic extended exposure to cells in culture medium, HerDox immobilized on Ni-NTA beads were incubated with bovine serum in DMEM for the indicated times at 37° C. before each sample was pelleted. Absorbance of supernatants (Filtrates) and bead eluates (Retentates) were measured at 480 nm to detect Dox. Relative Dox release or retention in serum is expressed as normalized to control (corresponding sample lacking serum). N=3 per time point.\nThe inventors tested the stability of HerDox over 12 days under different storage temperatures: 4° C., room temperature, or 37° C. On each day, a sample underwent ultrafiltration, then filtrates and retentates were measured to determine whether any Dox was released from the complex. […] The inventors also examined HerDox stability in serum-containing media at 37° C. […] Dox retention in the conjugate was also assessed by eluting the conjugate from the beads at each time point."}, "HER2+ tumors": {"test_system": "HER2+ tumors", "assay": "HerDox vs Dox biodistribution by Dox fluorescence imaging", "assay_type": "in vivo, mice", "procedure": "FIGS. 11 (A)-(B) illustrates preferential targeting of HerDox to HER2+ tumors. Tumor-bearing mice were injected with 0.75 nmoles of HerDox or Dox via the tail vein and imaged with a custom small animal imager. FIG. 11 (A) depicts imaging of live mice after IV delivery of HerDox. Tumors are indicated by arrows. FIG. 11 (B) depicts imaging of tumors and tissues harvested at 3 h after injection of HerDox or Dox. Fluorescence signal from Dox is pseudo-colored according to the color bar, with a shift toward 100 indicating high fluorescence intensity. FIG. 11 (B) illustrates a comparison of the targeted delivery of Dox to HER2+ breast cancer cells with minimal delivery to other organs and tissues using a delivery system in accordance with an embodiment of the present invention (left panel), as compared with Dox administered alone (right panel).\nDox emits a red fluorescence upon appropriate wavelength excitation, which can be used to detect biodistribution after systemic delivery of HerDox. Mice bearing 4-week old) tumors (˜700-800 mm^3) received a single tail vein injection of Dox or HerDox ([…] with respect to Dox cone) and images of live mice captured in real time, or of organs/tissues harvested at ˜3 h postinjection were acquired using a customized macro-illumination and detection system. Fluorescence was evident throughout the body at 10 min after HerDox injection, then quickly accumulated at the tumors by 20 min and remained detectable in the tumors up to 100 min after injection (FIG. 11 (A))."}, "MDA-MB-435": {"test_system": "MDA-MB-435", "assay": "Cytotoxicity on cell lines (Table I)", "assay_type": "cell-based", "settings": "50% reduction in cell survival, mean ± 1 SD, read-out: EC50** (uM HerDox)", "procedure": "(§1) FIGS. 17 (A)-(B) illustrates relative cell surface HER subunit levels and cytotoxicity on cell types. FIG. 17 (A) depicts a graph of relative cell surface HER subunit levels as measured by ELISA. Cells were incubated with anti-HER subunit antibodies followed by HRP-conjugated secondary antibodies using standard procedures. Relative cell numbers were measured by crystal violet staining and quantified by measuring crystal violet absorbance at 590 nm. Relative subunit levels are reported as the ELISA signal of each cell population normalized by the relative cell number, or Abs 450 run/590 nm. FIG. 17 (B) depicts toxicity to cells displaying differential HER2. Cytotoxicities from a range of HerDox doses were assessed on each cell line by metabolic assay and confirmed by crystal violet stain. CD50 values shown in log scale were determined by non-linear regression analyses of HerDox dose curves using a scientific graphing program and confirmed using a calculator. The relative HER2 level of each cell line is shown next to each CD50 value."}, "SKOV3": {"test_system": "SKOV3", "assay": "Cytotoxicity on cell lines (Table I)", "assay_type": "cell-based", "settings": "50% reduction in cell survival, mean ± 1 SD, read-out: EC50** (uM HerDox)", "procedure": "as §1"}, "T47D": {"test_system": "T47D", "assay": "Cytotoxicity on cell lines (Table I)", "assay_type": "cell-based", "settings": "50% reduction in cell survival, mean ± 1 SD, read-out: EC50** (uM HerDox)", "procedure": "as §1"}, "[2]": {"settings": "harvested at 3 h after injection"}, "[3]": {"settings": "single tail vein injection, live imaging"}}, "data": [{"molecule": "HerDox: non-covalent complex of HerPBK10, a small double-stranded nucleic acid and intercalated Dox (conjugate, left off: small tags and cut ends, non-covalent complex of HerPBK10, a small double-stranded nucleic acid and intercalated Dox) LPPRLKEMKSQESAAGSKLVLRCETSSEYSSLRFKWFKNGNELNRKNKPQNIKIQKKPGKSELRINKASLADSGEYMCKVISKLGNDSASANITIVESNEIITGMPASTEGAYVSSESPIRISVSTEGANTSSSTSTSTTGTSHLVKCAEKEKTFCVNGGECFMVKDLSNPSRYLCKCQPGFTGARCTENVPMKVQNQEKAEELYMRRAAMYEEGPPPSYESVVSAAPVAAALGSPFDAPLDPPFVPPRYLRPTGGRNSIRYSELAPLFDTTRVYLVDNKSTDVASLNYQNDHSNFLTTVIQNNDYSPGEASTQTINLDDRSHWGGDLKTILHTNMPNVNEFMFTNKFKARVMVSRLPTKDNQVELKYEWVEFTLPEGNYSETMTIDLMNNAIVEHYLKVGRQNGVLESDIGVKFDTRNFRLGFDPVTGLVMPGVYTNEAFHPDIILLPGCGVDFTHSRLSNLLGIRKRQPFQEGFRITYDDLEGGNIPALLDVDAYQASLKDDTEQGGGGAGGSNSSGSGAEENSNAAAAAMQPVEDMNDHAIRGDTFATRAEEKRAEAEAAAEAAAPAAQPEVEKPQKKPVIKPLTEDSKKRSYNLISNDSTFTQYRSWYLAYNYGDPQTGIRSWTLLCTPDVTCGSEQVYWSLPDMMQDPVTFRSTRQISNFPVVGAELLPVHSKSFYNDQAVYSQLIRQFTSLTHVFNRFPENQILARPPAPTITTVSENVPALTDHGTLPLRNSIGGVQRVTITDARRRTCPYVYKALGIVSPRVLSSRTFKKKKKKKKKK", "values": [{"measurement": "release of Dox from the conjugate in serum", "setting": "[1]", "value": "no significant release of Dox"}, {"measurement": "Dox retention by the conjugate in serum", "setting": "[1]; each time point", "value": "completely retained"}, {"measurement": "Dox fluorescence in heart, spleen, lungs, and skeletal muscle", "setting": "HER2+ tumors; [2]", "value": "did not exhibit any fluorescence"}, {"measurement": "Dox fluorescence in kidneys", "setting": "HER2+ tumors; [2]", "value": "barely detectable"}, {"measurement": "Dox fluorescence in liver", "setting": "HER2+ tumors; [2]", "value": "substantially lower levels of fluorescence"}, {"measurement": "Dox fluorescence in tumors", "setting": "HER2+ tumors; [2]", "value": "intense fluorescence"}, {"measurement": "time by which fluorescence accumulated at the tumors", "setting": "HER2+ tumors; [3]", "value": "≤ 20", "unit": "min"}, {"measurement": "time fluorescence remained detectable in the tumors", "setting": "HER2+ tumors; [3]", "value": "up to 100 min"}, {"measurement": "EC50", "setting": "MDA-MB-435", "value": "0.74 ± 0.07", "unit": "µM"}, {"measurement": "EC50", "setting": "SKOV3", "value": "0.18 ± 0.03", "unit": "µM"}, {"measurement": "EC50", "setting": "T47D", "value": "0.64 ± 0.04", "unit": "µM"}]}]}
